± gives the uncertainty stated by the source.
Test: self-splicing fitness, log relative to wild type (ln ratio); higher = more splicing; Tetrahymena group I intron in knt gene, E. coli kanamycin selection, DiMSum; sequences stand for … in CUCUCU…GGAGGGAAAAGUUAUCAGGCAUGCACCUGGUAGCUAGUCUUUAAACCAAUAGAUUGCAUCGGUUUAAAAGGCAAGACCGUCAAAUUGCGGGAAAGGGGUCAACAGCCGUUCAGUACCAAGUCUCAGGGGAAACUUUGAGAUGGCCUUGCAAAGGGUAUGGUAAUAAGCUGACGGACAUGGUCCUAACCACGCAGCCAAGUCCUAAGUCAACAGAUCUUCUGUUGAUAUGGAUGCAGUUCACAGACUAAAUGUCGGUCGGGGAAGAUGUAUUCUUCUCAUAAGAUAUAGUCGGACCUCUCCUUAAUGGGAGCUAGCGGAUGAAGUGAUGCAACACUGGAGCCGCUGGGAACUAAUUUGUAUGCGAAAGUAUAUUGAUUAGUUUUGGAGUACUCGUGGUCG
Procedure, shortened: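 A randomised library covering all eight P1ex-region intron nucleotides was built with the intron in the knt kanamycin-resistance gene on pET-22b(+) and held in E. coli BL21(DE3). Cells were grown overnight at 37°C or 30°C on LB agar, with or without 25 μg/mL kanamycin, plus 100 μg/mL carbenicillin, 50 μM IPTG and 0.2% rhamnose, and pooled colonies were amplicon-sequenced on an Illumina HiSeq 2500. DiMSum fitness is the error-weighted combination of wild-type-normalised replicate fold changes, kanamycin versus none.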

Sequence	self-splicing fitness (ln) (30 °C)	self-splicing fitness (ln) (37 °C)
GUUUAGCAAUAUUACGCGCG	-0.802 ± 0.1	-0.0312 ± 0.18
GUUUAGCAAUAUUACGCGGC	-1.26 ± 0.49	
GUUUAGCAAUAUUACGCGGU	-2.3 ± 0.45	-1.95 ± 0.36
GUUUAGCAAUAUUACGGACA	-1.68 ± 0.25	-1.44 ± 0.25
GUUUAGCAAUAUUACGGCUU	-1.08 ± 0.13	-0.894 ± 0.12
GUUUAGCAAUAUUACGGGAU	-2.57 ± 0.14	-1 ± 0.15
GUUUAGCAAUAUUACGGGGA	-3.57 ± 0.37	-1.41 ± 0.22
GUUUAGCAAUAUUACGGUGA	-1.84 ± 0.2	-0.461 ± 0.18
GUUUAGCAAUAUUACGUAGG	-2.77 ± 0.13	-0.822 ± 0.14
GUUUAGCAAUAUUACGUAUG	-2.29 ± 0.21	-0.712 ± 0.17
GUUUAGCAAUAUUACGUAUU	-2.91 ± 0.21	-1.38 ± 0.17
GUUUAGCAAUAUUACGUCGG	-2.06 ± 0.18	-2.12 ± 0.21
GUUUAGCAAUAUUACGUUGU	-4.02 ± 0.21	-2.17 ± 0.16
GUUUAGCAAUAUUACGUUUA	-2.69 ± 0.23	-0.853 ± 0.17
UAAAAGCAAUAUUACGAAAG	-2.21 ± 0.17	-1.56 ± 0.16
UAAAAGCAAUAUUACGAAGA	-2.44 ± 0.11	-1.12 ± 0.097
UAAAAGCAAUAUUACGAAGC	-3.23 ± 0.3	-3.29 ± 0.46
UAAAAGCAAUAUUACGAAUA	-0.61 ± 0.11	-0.627 ± 0.11
UAAAAGCAAUAUUACGACGU	-0.791 ± 0.13	-0.527 ± 0.12
UAAAAGCAAUAUUACGAUGC	-3.82 ± 0.29	-2.3 ± 0.18
UAAAAGCAAUAUUACGAUUG	-1.18 ± 0.087	-0.639 ± 0.11
UAAAAGCAAUAUUACGCAAU	-3.58 ± 0.17	-1.6 ± 0.13
UAAAAGCAAUAUUACGCACU	-0.274 ± 0.056	0.0996 ± 0.068
UAAAAGCAAUAUUACGCCGC		-1.17 ± 0.23
UAAAAGCAAUAUUACGCCUU	-1.53 ± 0.12	-0.42 ± 0.12

Sequence	self-splicing fitness (ln) (30 °C)	self-splicing fitness (ln) (37 °C)
UAAAAGCAAUAUUACGCGUA	-1.12 ± 0.11	-0.0821 ± 0.096
UAAAAGCAAUAUUACGCGUC	-3.53 ± 0.24	-2.7 ± 0.21
UAAAAGCAAUAUUACGGAUA	-1.35 ± 0.12	0.0185 ± 0.12
UAAAAGCAAUAUUACGGCUC	-1.05 ± 0.12	0.168 ± 0.17
UAAAAGCAAUAUUACGGGCA	-0.521 ± 0.094	0.0848 ± 0.1
UAAAAGCAAUAUUACGGGCC	-1.68 ± 0.2	-2.04 ± 0.38
UAAAAGCAAUAUUACGGGGC	-3.59 ± 0.23	-2.33 ± 0.25
UAAAAGCAAUAUUACGGGGU	-3.96 ± 0.17	-3.21 ± 0.2
UAAAAGCAAUAUUACGGUCC	-2.84 ± 0.17	-2.03 ± 0.21
UAAAAGCAAUAUUACGUAAC	-3.84 ± 0.33	-2.02 ± 0.3
UAAAAGCAAUAUUACGUAGU	-3.36 ± 0.12	-2.83 ± 0.14
UAAAAGCAAUAUUACGUAUA	-1.82 ± 0.12	-0.643 ± 0.12
UAAAAGCAAUAUUACGUGUC	-3.12 ± 0.25	-2.5 ± 0.2
UAAAAGCAAUAUUACGUUAU	-3.59 ± 0.16	-2.41 ± 0.13
UAACAGCAAUAUUACGAACA	-0.546 ± 0.072	0.297 ± 0.087
UAACAGCAAUAUUACGAAGG	-1.76 ± 0.083	-1.78 ± 0.12
UAACAGCAAUAUUACGACAA	-0.503 ± 0.094	0.136 ± 0.096
UAACAGCAAUAUUACGACCG	-0.596 ± 0.09	-0.323 ± 0.11
UAACAGCAAUAUUACGAGCG	-0.617 ± 0.055	0.286 ± 0.069
UAACAGCAAUAUUACGAUUA	-0.131 ± 0.047	-0.103 ± 0.058
UAACAGCAAUAUUACGCAAG	-2.08 ± 0.078	-2.23 ± 0.074
UAACAGCAAUAUUACGCAGC	-4.12 ± 0.37	-3.15 ± 0.4
UAACAGCAAUAUUACGCCUC	-2.18 ± 0.35	-2.06 ± 0.33
UAACAGCAAUAUUACGCGUU	-3.66 ± 0.1	-3.01 ± 0.13
UAACAGCAAUAUUACGGACA	-0.353 ± 0.085	-0.527 ± 0.1

Sequence	self-splicing fitness (ln) (30 °C)	self-splicing fitness (ln) (37 °C)
UAACAGCAAUAUUACGGACG	-0.143 ± 0.055	0.21 ± 0.079
UAACAGCAAUAUUACGGCAA	-0.777 ± 0.089	0.203 ± 0.096
UAACAGCAAUAUUACGGCUG	-2.55 ± 0.095	-0.978 ± 0.12
UAACAGCAAUAUUACGGUAG	-1.7 ± 0.07	-0.0293 ± 0.076
UAACAGCAAUAUUACGUACU	-1.07 ± 0.063	-0.454 ± 0.068
UAACAGCAAUAUUACGUCAA	-2.17 ± 0.15	-0.769 ± 0.1
UAACAGCAAUAUUACGUCUG	-0.467 ± 0.059	0.248 ± 0.077
UAACAGCAAUAUUACGUUAG	-2.24 ± 0.087	-0.961 ± 0.086
UAACAGCAAUAUUACGUUUU	-3.39 ± 0.12	-1.7 ± 0.099
UAAGAGCAAUAUUACGAACU	-2.49 ± 0.47	
UAAGAGCAAUAUUACGACAA	-3.57 ± 0.43	-1.79 ± 0.29
UAAGAGCAAUAUUACGAGCG	-3.12 ± 0.35	-1.54 ± 0.26
UAAGAGCAAUAUUACGCAAU	-3.35 ± 0.31	-2.32 ± 0.27
UAAGAGCAAUAUUACGCACC		-1.93 ± 0.41
UAAGAGCAAUAUUACGCAGC	-3.16 ± 0.22	-3.49 ± 0.33
UAAGAGCAAUAUUACGCAGG	-4.39 ± 0.36	-2.2 ± 0.2
UAAGAGCAAUAUUACGCAUA	-1.8 ± 0.39	-1.59 ± 0.3
UAAGAGCAAUAUUACGCCUG	-2.17 ± 0.15	-0.85 ± 0.2
UAAGAGCAAUAUUACGCGAG	-3.96 ± 0.21	-1.85 ± 0.17
UAAGAGCAAUAUUACGCGGA	-2.95 ± 0.28	-2.35 ± 0.33
UAAGAGCAAUAUUACGGCAG	-3.03 ± 0.18	-1.38 ± 0.17
UAAGAGCAAUAUUACGGCCG	-1.79 ± 0.14	-0.743 ± 0.2
UAAGAGCAAUAUUACGGCGU	-1.79 ± 0.13	-2.39 ± 0.31
UAAGAGCAAUAUUACGGGAC	-2.98 ± 0.38	-1.86 ± 0.33
UAAGAGCAAUAUUACGGUAG		-2.57 ± 0.35

Sequence	self-splicing fitness (ln) (30 °C)	self-splicing fitness (ln) (37 °C)
UAAGAGCAAUAUUACGGUCU	-3.26 ± 0.4	-2.04 ± 0.24
UAAGAGCAAUAUUACGUAGG	-3.24 ± 0.33	-2.56 ± 0.3
UAAGAGCAAUAUUACGUCCU		-2.49 ± 0.45
UAAGAGCAAUAUUACGUCGG	-3.8 ± 0.29	-2.25 ± 0.27
UAAGAGCAAUAUUACGUGAU	-4.21 ± 0.34	-2.43 ± 0.35
UAAGAGCAAUAUUACGUGCG	-3.85 ± 0.42	-0.711 ± 0.27
UAAUAGCAAUAUUACGACAA	-2.23 ± 0.16	-1.01 ± 0.14
UAAUAGCAAUAUUACGACAU	-3.378 ± 0.025	-1.95 ± 0.036
UAAUAGCAAUAUUACGAGCA	-1.64 ± 0.16	-1.21 ± 0.16
UAAUAGCAAUAUUACGCAUC	-2.08 ± 0.49	
UAAUAGCAAUAUUACGCAUG	-1.4 ± 0.085	0.553 ± 0.13
UAAUAGCAAUAUUACGCCCA	-1.36 ± 0.19	0.129 ± 0.26
UAAUAGCAAUAUUACGCCGG	-1.23 ± 0.17	-1.05 ± 0.33
UAAUAGCAAUAUUACGCCGU	-2.83 ± 0.38	-1.97 ± 0.43
UAAUAGCAAUAUUACGCUUA	-1.32 ± 0.25	-0.932 ± 0.15
UAAUAGCAAUAUUACGGCGC	-3.51 ± 0.35	-2.42 ± 0.38
UAAUAGCAAUAUUACGGCUC	-2.37 ± 0.23	-0.201 ± 0.23
UAAUAGCAAUAUUACGGGCC	-3.78 ± 0.44	-2.52 ± 0.48
UAAUAGCAAUAUUACGGUGU	-2.98 ± 0.21	-2.93 ± 0.3
UAAUAGCAAUAUUACGUCAG	-2.58 ± 0.25	-1.56 ± 0.2
UAAUAGCAAUAUUACGUGCA	-1.36 ± 0.11	-1.34 ± 0.099
UAAUAGCAAUAUUACGUGGU	-4.96 ± 0.28	-2.75 ± 0.15

Source: the supplement of paper PMC7877785
